T1: recombinant human IGSF8 extracellular domain tagged by a human Fc region (IGSF8-hFc) (human, UniProt Q969P0 28-579, biotin label in Examples 17, 18 and 28 (site not given))
T1 construct: also called IGSF8-Fc fusion protein; IGSF8-hFc-biotin; not shown: human Fc region
T1 sequence: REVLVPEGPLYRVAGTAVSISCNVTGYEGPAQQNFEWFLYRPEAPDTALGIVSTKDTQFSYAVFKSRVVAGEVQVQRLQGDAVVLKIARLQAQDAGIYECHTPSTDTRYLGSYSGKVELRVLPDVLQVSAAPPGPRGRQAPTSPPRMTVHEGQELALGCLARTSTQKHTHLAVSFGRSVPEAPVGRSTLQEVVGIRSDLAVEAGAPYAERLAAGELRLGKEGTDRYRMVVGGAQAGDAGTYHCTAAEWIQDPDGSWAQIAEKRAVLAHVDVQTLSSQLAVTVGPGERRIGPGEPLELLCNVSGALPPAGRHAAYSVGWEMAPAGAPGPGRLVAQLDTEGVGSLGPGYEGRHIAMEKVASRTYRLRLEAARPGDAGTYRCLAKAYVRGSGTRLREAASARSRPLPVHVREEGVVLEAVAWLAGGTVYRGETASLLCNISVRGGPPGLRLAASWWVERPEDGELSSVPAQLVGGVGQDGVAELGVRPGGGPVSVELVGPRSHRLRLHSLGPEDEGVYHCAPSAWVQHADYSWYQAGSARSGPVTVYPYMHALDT


Target: T1, recombinant human IGSF8 extracellular …
Assay: SPR, Ab captured
Experimental: The binding affinities of the L1 and L2 antibodies to IGSF8 recombinant protein were determined by surface plasmon resonance (SPR). Briefly, anti-human Fab antibody was imobilized on acarboxyl-derivatized SPR chip surface, and the antibodies were captured on the resulting surface at 5 μg/ml for 30 seconds.

Kd | koff | kon | Binder
465 nM | 0.00567 s⁻¹ | 12200 M⁻¹ s⁻¹ | L2VH-D31S (antibody, V domains shown) VH: EVQLVESGGGLEQPGGSLRLSCAGSGFTFRSYAMTWVRQAPGKGLEWVSSISGSGGNTYYADSVKGRFTISRDNSKNTLYLQMNSLRAEDTAIYYCARGEYSSGWPSWFDPWGQGTLVTVSS VL: EIVLTQSPSSLSASVGDRVTISCRASRTVGTFLNWYQQRPGKPPQALILGVSILEGGVSSRFSGAGSGTEFSLTISSLQPEDIGTYYCQQSHDVPRTFGQGTKVDLR
22.8 nM | 0.00139 s⁻¹ | 61100 M⁻¹ s⁻¹ | L2VH-T35S (antibody, V domains shown) VH: EVQLVESGGGLEQPGGSLRLSCAGSGFTFRDYAMSWVRQAPGKGLEWVSSISGSGGNTYYADSVKGRFTISRDNSKNTLYLQMNSLRAEDTAIYYCARGEYSSGWPSWFDPWGQGTLVTVSS VL: EIVLTQSPSSLSASVGDRVTISCRASRTVGTFLNWYQQRPGKPPQALILGVSILEGGVSSRFSGAGSGTEFSLTISSLQPEDIGTYYCQQSHDVPRTFGQGTKVDLR
0.475 nM | 7.15e-05 s⁻¹ | 151000 M⁻¹ s⁻¹ | L2-09 (antibody, V domains shown) VH: EVQLVESGGGLEQPGGSLRLSCAASGFTFRDYAMTWVRQAPGKGLEWVSSISGSGGSTYYADSVKGRFTISRDNSKNTLYLQMNSLRAEDTAIYYCARGEYSSGWPSWFDPWGQGTLVTVSS VL: DIQMTQSPSSLSASVGDRVTITCRASRTVGTFLNWYQQKPGKAPKALILHTSILEGGVPSRFSGSGSGTDFTLTISSLQPEDIGTYYCQQSHDVPRTFGQGTKVEIK
68 nM | 0.00202 s⁻¹ | 29700 M⁻¹ s⁻¹ | L2VL-D93S (antibody, V domains shown) VH: EVQLVESGGGLEQPGGSLRLSCAGSGFTFRDYAMTWVRQAPGKGLEWVSSISGSGGNTYYADSVKGRFTISRDNSKNTLYLQMNSLRAEDTAIYYCARGEYSSGWPSWFDPWGQGTLVTVSS VL: EIVLTQSPSSLSASVGDRVTISCRASRTVGTFLNWYQQRPGKPPQALILGVSILEGGVSSRFSGAGSGTEFSLTISSLQPEDIGTYYCQQSHSVPRTFGQGTKVDLR
3.27 nM | 0.000465 s⁻¹ | 142000 M⁻¹ s⁻¹ | L2-03 (antibody, V domains shown) VH: EVQLVESGGGLEQPGGSLRLSCAGSGFTFRDYAMTWVRQAPGKGLEWVSSISGSGGSTYYADSVKGRFTISRDNSKNTLYLQMNSLRAEDTAIYYCARGEYSSGWPSWFDPWGQGTLVTVSS VL: EIVLTQSPSSLSASVGDRVTISCRASRTVGTFLNWYQQRPGKPPQALILGVSILEGGVSSRFSGAGSGTEFSLTISSLQPEDIGTYYCQQSHDVPRTFGQGTKVDLR
5.45 nM | 0.000249 s⁻¹ | 45700 M⁻¹ s⁻¹ | L2-06 (antibody, V domains shown) VH: EVQLVESGGGLEQPGGSLRLSCAASGFTFRDYAMTWVRQAPGKGLEWVSSISGSGGSTYYADSVKGRFTISRDNSKNTLYLQMNSLRAEDTAIYYCARGEYSSGWPSWFDPWGQGTLVTVSS VL: DIQMTQSPSSLSASVGDRVTITCRASRTVGTFLNWYQQKPGKAPKALILGVSILEGGVPSRFSGSGSGTDFTLTISSLQLEDFATYYCQQSHDVPRTFGQGTKVEIK
48.7 nM | 0.00248 s⁻¹ | 51000 M⁻¹ s⁻¹ | L2VH-R98K (antibody, V domains shown) VH: EVQLVESGGGLEQPGGSLRLSCAGSGFTFRDYAMTWVRQAPGKGLEWVSSISGSGGNTYYADSVKGRFTISRDNSKNTLYLQMNSLRAEDTAIYYCAKGEYSSGWPSWFDPWGQGTLVTVSS VL: EIVLTQSPSSLSASVGDRVTISCRASRTVGTFLNWYQQRPGKPPQALILGVSILEGGVSSRFSGAGSGTEFSLTISSLQPEDIGTYYCQQSHDVPRTFGQGTKVDLR

More lines, now with the values behind:

Binder | Kd | koff | kon
L2-08 (antibody, V domains shown) VH: EVQLVESGGGLEQPGGSLRLSCAASGFTFRDYAMTWVRQAPGKGLEWVSSISGSGGSTYYADSVKGRFTISRDNSKNTLYLQMNSLRAEDTAIYYCARGEYSSGWPSWFDPWGQGTLVTVSS VL: DIQMTQSPSSLSASVGDRVTITCRASRTVGTFLNWYQQKPGKAPKALILGVSILEGGVPSRFSGSGSGTDFTLTISSLQPEDIATYYCQQSHDVPRTFGQGTKVEIK | 0.869 nM | 0.000112 s⁻¹ | 129000 M⁻¹ s⁻¹
L2-07 (antibody, V domains shown) VH: EVQLVESGGGLEQPGGSLRLSCAASGFTFRDYAMTWVRQAPGKGLEWVSSISGSGGSTYYADSVKGRFTISRDNSKNTLYLQMNSLRAEDTAIYYCARGEYSSGWPSWFDPWGQGTLVTVSS VL: DIQMTQSPSSLSASVGDRVTITCRASRTVGTFLNWYQQKPGKAPKALILGVSILEGGVPSRFSGSGSGTDFTLTISSLQPEDIGTYYCQQSHDVPRTFGQGTKVEIK | 1.16 nM | 0.000129 s⁻¹ | 111000 M⁻¹ s⁻¹
L2VH-S50A (antibody, V domains shown) VH: EVQLVESGGGLEQPGGSLRLSCAGSGFTFRDYAMTWVRQAPGKGLEWVSAISGSGGNTYYADSVKGRFTISRDNSKNTLYLQMNSLRAEDTAIYYCARGEYSSGWPSWFDPWGQGTLVTVSS VL: EIVLTQSPSSLSASVGDRVTISCRASRTVGTFLNWYQQRPGKPPQALILGVSILEGGVSSRFSGAGSGTEFSLTISSLQPEDIGTYYCQQSHDVPRTFGQGTKVDLR | 23.7 nM | 0.000486 s⁻¹ | 20500 M⁻¹ s⁻¹
L2-05 (antibody, V domains shown) VH: EVQLVESGGGLEQPGGSLRLSCAASGFTFRDYAMTWVRQAPGKGLEWVSAISGSGGSTYYADSVKGRFTISRDNSKNTLYLQMNSLRAEDTAIYYCARGEYSSGWPSWFDPWGQGTLVTVSS VL: EIVLTQSPSSLSASVGDRVTISCRASRTVGTFLNWYQQRPGKPPQALILGVSILEGGVSSRFSGAGSGTEFSLTISSLQPEDIGTYYCQQSHDVPRTFGQGTKVDLR | 2.63 nM | 0.000112 s⁻¹ | 42700 M⁻¹ s⁻¹
L2-02 (antibody, V domains shown) VH: EVQLVESGGGLEQPGGSLRLSCAGSGFTFRDYAMTWVRQAPGKGLEWVSSISGSGGNTYYADSVKGRFTISRDNSKNTLYLQMNSLRAEDTAIYYCARGEYSSGWPSWFDPWGQGTLVTVSS VL: EIVLTQSPSSLSASVGDRVTISCRASRTVGTFLNWYQQRPGKPPQALILHTSILEGGVSSRFSGAGSGTEFSLTISSLQPEDIGTYYCQQSHDVPRTFGQGTKVDLR | 4.85 nM | 0.000131 s⁻¹ | 27100 M⁻¹ s⁻¹
L2-04 (antibody, V domains shown) VH: EVQLVESGGGLEQPGGSLRLSCAASGFTFRDYAMTWVRQAPGKGLEWVSSISGSGGSTYYADSVKGRFTISRDNSKNTLYLQMNSLRAEDTAIYYCARGEYSSGWPSWFDPWGQGTLVTVSS VL: EIVLTQSPSSLSASVGDRVTISCRASRTVGTFLNWYQQRPGKPPQALILGVSILEGGVSSRFSGAGSGTEFSLTISSLQPEDIGTYYCQQSHDVPRTFGQGTKVDLR | 2.98 nM | 0.000142 s⁻¹ | 47600 M⁻¹ s⁻¹
L2VH-R30S (antibody, V domains shown) VH: EVQLVESGGGLEQPGGSLRLSCAGSGFTFSDYAMTWVRQAPGKGLEWVSSISGSGGNTYYADSVKGRFTISRDNSKNTLYLQMNSLRAEDTAIYYCARGEYSSGWPSWFDPWGQGTLVTVSS VL: EIVLTQSPSSLSASVGDRVTISCRASRTVGTFLNWYQQRPGKPPQALILGVSILEGGVSSRFSGAGSGTEFSLTISSLQPEDIGTYYCQQSHDVPRTFGQGTKVDLR | 146 nM | 0.00165 s⁻¹ | 11400 M⁻¹ s⁻¹

— patent US20230303695A1 (SHANGHAI XBH BIOTECHNOLOGY, published 2023)
